Experiments:
[1] = target: biotinated firefly luciferase bL248 (Luciola lateralis (HEIKE firefly) luciferase fused to a part of E. coli BCCP)
[2] = target: chemically modified biotinated firefly luciferase (Photinus pyralis) [luciferase: P08659]
[3] = target: biotinated firefly luciferase bL203 (Luciola lateralis (HEIKE firefly) luciferase fused to an artificial peptide)

activity maintained upon binding to streptavidin [1]: 102% | remaining activity after mixed with streptavidin [2]: 62% | remaining activity after mixed with streptavidin [3]: 93%
Substance: streptavidin (from UniProt P22629)

Source: patent US5843746
